Where two headings read alike, the source gives them in different places.
T1: SRSF3 (SRp20), recombinant (UniProt P84103 1-164)
T1 sequence: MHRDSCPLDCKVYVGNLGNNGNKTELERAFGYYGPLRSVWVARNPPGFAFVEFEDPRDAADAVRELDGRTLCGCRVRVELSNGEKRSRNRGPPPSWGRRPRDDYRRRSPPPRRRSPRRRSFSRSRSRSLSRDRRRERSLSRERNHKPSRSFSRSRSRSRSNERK

B1: CPEB2 exon 4 WT RNA, biotinylated (ssRNA)
RNA: GUGAGAUCUAGUUUGCAGUUGCCAGCUUGGGGCUCAGAUUCACUCCAAGAUAGUUGGUGCACUGCAGCCGGAACAUCCAGAAUAGACCAG
B2: CPEB2 exon 4 MUT RNA (CAUCC to GAGUC), biotinylated (ssRNA)
RNA: GUGAGAUCUAGUUUGCAGUUGCCAGCUUGGGGCUCAGAUUCACUCCAAGAUAGUUGGUGCACUGCAGCCGGAAGAGUCAGAAUAGACCAG

Experiments:
[1] = molecular target: T1, SRSF3 (SRp20), recombinant; assay: pull-down
[2] = molecular target: T1, SRSF3 (SRp20), recombinant; assay: pull-down; remark: listed apart in the source

Binder | binding result [1] | binding result [2]
B1 | binds | –
B2 | – | no binding
